Laboratory results taken from publication PMC3659392 (Science translational medicine, 2012).

Experiments:
DprE1 [1] = target: T1, DprE1 (Mycolicibacterium smegmatis, UniProt A0R607); assay: DCPIP enzyme assay, […] min incubation; type: biochemical
T1 sequence (A0R607 1-460): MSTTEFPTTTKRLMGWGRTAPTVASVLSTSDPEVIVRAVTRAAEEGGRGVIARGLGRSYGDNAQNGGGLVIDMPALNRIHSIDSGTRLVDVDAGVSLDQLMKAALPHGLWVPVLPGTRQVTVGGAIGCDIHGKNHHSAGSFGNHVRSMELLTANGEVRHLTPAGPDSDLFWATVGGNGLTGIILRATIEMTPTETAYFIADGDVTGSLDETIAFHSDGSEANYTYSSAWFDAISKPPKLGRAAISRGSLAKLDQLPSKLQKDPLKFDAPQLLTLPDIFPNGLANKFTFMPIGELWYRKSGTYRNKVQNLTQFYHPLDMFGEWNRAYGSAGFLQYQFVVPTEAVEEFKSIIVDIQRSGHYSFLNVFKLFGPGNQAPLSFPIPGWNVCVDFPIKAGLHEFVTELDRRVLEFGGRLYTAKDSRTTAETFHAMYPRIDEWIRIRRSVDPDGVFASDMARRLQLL

DprE1 [2] = target: T1, DprE1; assay: crystal structure of covalent adduct; type: biochemical
purified protein [3] = substrate: O=C1C(Cl)=CC(=Nc2ccc(O)cc2)C=C1Cl; assay: purified protein; details: FAD electron acceptor re-oxidizing reduced FAD
purified protein [4] = substrate: CC(C)=CCC/C(C)=C/CC/C(C)=C/COP(=O)(O)O[C@@H]1O[C@H](CO)[C@@H](O)[C@H]1O; assay: purified protein; details: FAD; pH 8.5

## C[C@H]1COC2(CCN(c3nc(=O)c4cc(C(F)(F)F)cc(NO)c4s3)CC2)O1 [BTZ046]
DprE1 [1]
  IC50: 19.7 µM

## C[C@H]1COC2(CCN(c3nc(=O)c4cc(C(F)(F)F)cc([N+](=O)[O-])c4s3)CC2)O1 [BTZ043]
DprE1 [2]
  IC50: 4.5 µM

## C[C@H]1COC2(CCN(c3nc(=O)c4cc(C(F)(F)F)cc(N)c4s3)CC2)O1 [BTZ045]
DprE1 [1]
  IC50: 11 µM

B1: DprE1 (Mycolicibacterium smegmatis MC2 155) (protein)
chain: T1 sequence (A0R607 1-460)
Purified protein [3]
  Km: 4.2 µM
Purified protein [4]
  Km: 110 µM
  kcat: 0.212 ± 0.01 s⁻¹
  kcat/Km: 1930 ± 182 M⁻¹ s⁻¹
